Holding throughout (assay): SPR, antibody captured, C2 as analyte;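 also: biacore at 37 °C, anti-C2 mAbs held by immobilised goat anti-human IgG, C2 alanine or serine mutants injected, double-referenced sensorgrams fitted to a 1:1 kinetic or steady-state model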
Test [1] has as its target T1, human C2 R688A (human, UniProt P06681 21-752).
T1 sequence: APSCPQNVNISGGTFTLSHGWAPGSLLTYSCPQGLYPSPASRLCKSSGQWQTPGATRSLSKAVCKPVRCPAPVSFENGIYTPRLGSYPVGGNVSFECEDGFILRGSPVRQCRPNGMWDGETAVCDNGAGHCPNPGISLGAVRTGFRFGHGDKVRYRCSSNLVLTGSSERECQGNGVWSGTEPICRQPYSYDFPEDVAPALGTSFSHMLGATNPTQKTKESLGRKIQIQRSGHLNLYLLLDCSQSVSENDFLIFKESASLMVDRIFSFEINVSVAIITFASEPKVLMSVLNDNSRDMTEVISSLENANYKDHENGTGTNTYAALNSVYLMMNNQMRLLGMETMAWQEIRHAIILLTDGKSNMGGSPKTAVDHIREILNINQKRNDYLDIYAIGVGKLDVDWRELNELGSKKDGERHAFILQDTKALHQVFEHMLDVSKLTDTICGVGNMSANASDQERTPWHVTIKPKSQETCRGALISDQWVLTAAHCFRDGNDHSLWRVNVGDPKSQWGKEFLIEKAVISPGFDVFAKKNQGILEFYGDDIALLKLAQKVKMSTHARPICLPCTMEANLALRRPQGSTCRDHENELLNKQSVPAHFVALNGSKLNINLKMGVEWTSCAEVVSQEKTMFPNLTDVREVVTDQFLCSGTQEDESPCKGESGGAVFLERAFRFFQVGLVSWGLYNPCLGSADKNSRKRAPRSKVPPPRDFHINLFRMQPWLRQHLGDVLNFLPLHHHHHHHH

The target of test [2] is T2, human C2 N325A (human, UniProt P06681 21-752).
T2 sequence: T1 sequence with N305A, A668R

The target of test [3] is T3, human C2 L439A (human, UniProt P06681 21-752).
T3 sequence: T1 sequence with L419A, A668R

Test [4] deals with T4, human C2 K329A (human, UniProt P06681 21-752).
T4 sequence: T1 sequence with K309A, A668R

Changes are numbered by the printed parent chain.

B1: RF16-242 (antibody, human IgG4 S228P, lambda, V domains shown)
VH: EVQLLQSGAEVKKPGESLKISCKGSGYSFTSYWIGWVRQMPGKGLEWMGIIYPGDSDTRYSPSFQGQVTISADKSISTAYLQWSSLKASDTAMYYCARRGHYGDYFDYWGQGTLVTVSS
VL: SYELTQPPSVSVSPGQTARITCSGDALPKKYAYWYHQKSGQAPVLVIYEDRRRPSEIPERFSGSSSGTMATLTITGAQVEDEGVYFCYSRDRAGNQRVFGGGTQLTVLG
notes: pH-dependent anti-C2 antibody from a phage display library
Turning to B1, the Kd amounted to 17.3 nM in test [1], 39.9 nM in test [2], 170 nM in test [3] and 14.8 nM in test [4].

The values are drawn from patent publication US20220332804A1 (CSL INNOVATION, published 2022).
